B1: HDV Ribozyme (parent)
chain: GGCCGGCAUGGUCCCAGCCUCCUCGCUGGCGCCGGCUGGGCAACAUUCCGAGGGGACCGUCCCCUCGGUAAUGGCGAAUGGGACCCA

This data set covers variants of B1. Description: self-cleavage, relative activity (ratio to wild type); higher = more cleavage; co-transcriptional.
As for GGCCGGCAUGUUCCCAGCCUCCUCGCUGGCGCCGGCUGGGCAACAUUCCGAGGGGACCGUCCCCUCGGUAAUGGCGAAUGGGACCCC, the self-cleavage turned out to be 0.415.

Consider GGCCGGCAUGCUCCCAGCCUCCUCGCUGGCGCCGGCUGGGCAACAUACCGAGGGGACCGUCCCCUCGGUAAUGGCGAAUGGGACCCA, for which the self-cleavage was determined as 0.151.

GGCCGGCAUGCUCCCAGCCUCCCCGCUGGCGCCGGCUGGGCAACAUUCCGAGGGGACCGUCCCCUCGGUAAUGGCGAAUGGGACCCA: the self-cleavage turned out to be 0.277.

Regarding GGCCGGCAUGCUCCCAGCCUCCUCGCUGGCGCCGGCUGGGCAACAUUCCGAGGGAACCGUCCCCUCGGUAAUGGCGAAUGGGACCCA, the self-cleavage came out at 0.407.

Take GGCCGGCAUGCUCCCAGCCUCGUCGCUGGCGCCGGCUGGGCAACAUUCCGAGGGGACCGUCCCCUCGGUAAUGGCGAAUGGGACCCA: the self-cleavage is 0.0386.

As to GGCCGGCAUGUUCCCGGCCUCCUCGCUGGCGCCGGCUGGGCAACAUUCCGAGGGGACCGUCCCCUCGGUAAUGGCGAAUGGGACCCA, the self-cleavage was 0.309.

On to GGCCGGCAUGUUCCCUGCCUCCUCGCUGGCGCCGGCUGGGCAACAUUCCGAGGGGACCGUCCCCUCGGUAAUGGCGAAUGGGACCCA, for which the self-cleavage worked out at 0.673.

Take GGCCGGCAUGCUCCCAGCCUCCUCGCUGGCGCCGGCUGUGCAACAUUCCGAGGGGACCGUCCCCUCGGUAAUGGCGAAUGGGACCCA: the self-cleavage was determined as 0.

Consider GGCCGGCAUGCUCCCAGCCUCCUCGCUGGCGCCGGCUGGGAAACAUUCCGAGGGGACCGUCCCCUCGGUAAUGGCGAAUGGGACCCA, for which the self-cleavage was determined as 0.185.

Regarding GGCCGGCAUGCUCCCAGCCUCCUCGCUGGCGCCGGCUGGGCAACAUUCCGAGGGGACCGUCCCCUCGGUAAUGACGAAUGGGACCCA, the self-cleavage was 0.117.

With GGCCGGCAUGCUCCCAGCCUCCUCGCUGGCGCCAGCUGGGCAACAUUCCGAGGGGACCGUCCCCUCGGUAAUGGCGAAUGGGACCCA, the self-cleavage stood at 0.108.

Turning to GGCCGGCAUGCUCCGAGCCUCCUCGCUGGCGCCGGCUGGGCAACAUUCCGAGGGGACCGUCCCCUCGGUAAUGGCGAAUGGGACCCA, the self-cleavage is 0.131.

For the variant GGCCGGCAUGUUCCCAGCCUCCUCGCUGGCGCCGGCUGGGCAACAUUCCGAGGGGACCGUCCCCUCGGUAAUGGCGUAUGGGACCCA, the self-cleavage turned out to be 0.0906.

Turning to GGCCGGCAUGUUCCCAGCCUCCUCGCUGGCGCCGGCUGGGCAACAUUCCGAGGGGACCGUCCCCUCGGUAAUGGCGCAUGGGACCCA, the self-cleavage was 0.0652.

Take GGCCGGCAUGCUCCCAGCCUCCUCGCUGGCGCCGGCUGGGCAACAUUCCGAGGGGACCGUCCCCUCGGUAAUGGCGAAUGGGCCCCA: the self-cleavage was determined as 0.158.

For the variant GGCCGGCAUGCUCCCAGCCUCCUCGCUGGCGCCGGCUGGGCAACAUUCCGAGGGGACCGUCCCCUCGGUAAUGGCGAAUGGGGCCCA, the self-cleavage came out at 0.123.

Regarding GGCCGGCAUGUUCCCAGCCUCCUCGCUGGCGCCGGCUGGGCAACAUUCCGAGGGGACCGUCCCCUCGGUAAUGGCGAUUGGGACCCA, the self-cleavage was determined as 0.0755.

Consider GGCCGGCAUGCUCCCAGCCUUCUCGCUGGCGCCGGCUGGGCAACAUUCCGAGGGGACCGUCCCCUCGGUAAUGGCGAAUGGGACCCA, for which the self-cleavage came to 0.156.

Take GGCCGGCAUGCUCCCAGCCUCCUCGCGGGCGCCGGCUGGGCAACAUUCCGAGGGGACCGUCCCCUCGGUAAUGGCGAAUGGGACCCA: the self-cleavage is 0.356.

GGCCGGCAUGUUUCCAGCCUCCUCGCUGGCGCCGGCUGGGCAACAUUCCGAGGGGACCGUCCCCUCGGUAAUGGCGAAUGGGACCCA: the self-cleavage was 0.0674.

Regarding GGCCGGCAUGCUCCCAGCCUCCUCGCUGGCGCCGGCUGGGCAACAUUCCGAGGGGACCGUCCCCUCGGUAAUGGCGAAUGCGACCCA, the self-cleavage stood at 0.0519.

In the case of GGCCGGCAUGCUCCCAGCCUCCUCGCUGGCGCCGUCUGGGCAACAUUCCGAGGGGACCGUCCCCUCGGUAAUGGCGAAUGGGACCCA, the self-cleavage stood at 0.271.

On to GGCCGGCAUGUUCCCAGCCUCCUCGGUGGCGCCGGCUGGGCAACAUUCCGAGGGGACCGUCCCCUCGGUAAUGGCGAAUGGGACCCA, for which the self-cleavage turned out to be 0.527.

In the case of GGCCGGCAUGCUCCCAGCCUCCUCGUUGGCGCCGGCUGGGCAACAUUCCGAGGGGACCGUCCCCUCGGUAAUGGCGAAUGGGACCCA, the self-cleavage was found to be 0.895.

With GGCCGGCAUGUUCCCAGCCUCCUUGCUGGCGCCGGCUGGGCAACAUUCCGAGGGGACCGUCCCCUCGGUAAUGGCGAAUGGGACCCA, the self-cleavage worked out at 0.111.

For the variant GGCCGGCAUGUUCCCAGCCUCCUGGCUGGCGCCGGCUGGGCAACAUUCCGAGGGGACCGUCCCCUCGGUAAUGGCGAAUGGGACCCA, the self-cleavage came out at 0.0966.

For GGCCGGCAUGCUCCCAGCCUCCUCGCUGGCGCCGGCUGGUCAACAUUCCGAGGGGACCGUCCCCUCGGUAAUGGCGAAUGGGACCCA, the self-cleavage was found to be 0.189.

For GGCCGGCAUGCUCGCAGCCUCCUCGCUGGCGCCGGCUGGGCAACAUUCCGAGGGGACCGUCCCCUCGGUAAUGGCGAAUGGGACCCA, the self-cleavage came out at 0.

GGCCGGCAUGUUCCCAGCCUCCUCGCUGGUGCCGGCUGGGCAACAUUCCGAGGGGACCGUCCCCUCGGUAAUGGCGAAUGGGACCCA: the self-cleavage is 0.0923.

Turning to GGCCGGCAUGCUCCCAGCCUCCUCGCUGGCGCCGGCUGGGCAACAUUCCUAGGGGACCGUCCCCUCGGUAAUGGCGAAUGGGACCCA, the self-cleavage came out at 0.54.

In the case of GGCCGGCAUGCUCCCAGCCUCCUCGCUGGCGCCGGCUGGGCAACAUUCCAAGGGGACCGUCCCCUCGGUAAUGGCGAAUGGGACCCA, the self-cleavage is 0.271.

For the variant GGCCGGCAUGCUCCCAGCCUCCUCGCUGGCGCCGGCUGGGCAACAUUCGGAGGGGACCGUCCCCUCGGUAAUGGCGAAUGGGACCCA, the self-cleavage was found to be 0.0504.
